# Laboratory results taken from the supplement of paper PMC9112550, “Optimization of the antimicrobial peptide Bac7 by deep mutational scanning” (BMC Biology, 2022).
# Test system: Escherichia coli TOP10
# Assay: shrunken log2 fold change of peptide-encoding DNA abundance (4.5 h post-induction vs induction); higher = less antimicrobial activity (less host growth inhibition)
# Details: time post-induction: 4.5 h; library: site-saturation at positions 5, 18, 19, 20
# 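Further: peptides expressed intracellularly from a pBAD plasmid library in pooled LB shake-flask culture, induced with 0.3% L-arabinose, DNA abundance read by NGS, three biological replicates, DESeq2 with apeglm shrinkage.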
row,Sequence,shrunken log2 fold change
1,RRIRIRPPRLPRPRPRPFPIPRP,0.0234
2,RRIRYRPPRLPRPRPRPAVPPRP,-0.625
3,RRIRYRPPRLPRPRPRPSMIPRP,-0.77
4,RRIRTRPPRLPRPRPRPYTVPRP,-0.0341
5,RRIRPRPPRLPRPRPRPGTPPRP,0.0946
6,RRIRYRPPRLPRPRPRPCLGPRP,-0.231
7,RRIRNRPPRLPRPRPRPQTKPRP,0.173
8,RRIRYRPPRLPRPRPRPMLEPRP,0.0653
9,RRIRVRPPRLPRPRPRPHNNPRP,-0.652
10,RRIRSRPPRLPRPRPRPHPYPRP,-0.807
11,RRIRKRPPRLPRPRPRPSYLPRP,-0.144
12,RRIRYRPPRLPRPRPRPEYSPRP,-0.0605
13,RRIRFRPPRLPRPRPRPYWQPRP,-0.9
14,RRIRARPPRLPRPRPRPSIFPRP,-0.101
15,RRIRMRPPRLPRPRPRPWTRPRP,-0.00172
16,RRIRHRPPRLPRPRPRPLDLPRP,0.441
17,RRIRIRPPRLPRPRPRPFIEPRP,-0.848
18,RRIRCRPPRLPRPRPRPYNNPRP,-1.23
19,RRIRDRPPRLPRPRPRPEDLPRP,0.902
20,RRIRNRPPRLPRPRPRPMSPPRP,-0.000685

row,Sequence,shrunken log2 fold change
1,RRIRARPPRLPRPRPRPLWWPRP,0.648
2,RRIRHRPPRLPRPRPRPPWEPRP,0.193
3,RRIRKRPPRLPRPRPRPPMPPRP,0.525
4,RRIRLRPPRLPRPRPRPWNHPRP,-0.347
5,RRIRLRPPRLPRPRPRPDSYPRP,0.00388
6,RRIRTRPPRLPRPRPRPFQWPRP,-0.0875
7,RRIRNRPPRLPRPRPRPLRHPRP,-0.0731
8,RRIRNRPPRLPRPRPRPTGTPRP,0.0526
9,RRIRKRPPRLPRPRPRPMMPPRP,0.234
10,RRIRKRPPRLPRPRPRPEYVPRP,-0.00396
11,RRIRCRPPRLPRPRPRPEGIPRP,-0.106
12,RRIRQRPPRLPRPRPRPAYCPRP,-0.043
13,RRIRCRPPRLPRPRPRPGTSPRP,0.0279
14,RRIRVRPPRLPRPRPRPQIHPRP,-1.01
15,RRIRMRPPRLPRPRPRPRENPRP,0.265
16,RRIRKRPPRLPRPRPRPLMSPRP,0.0201
17,RRIRWRPPRLPRPRPRPGSLPRP,0.0223
18,RRIRFRPPRLPRPRPRPHKNPRP,-0.389
19,RRIRPRPPRLPRPRPRPLKRPRP,-0.161
20,RRIRGRPPRLPRPRPRPPNMPRP,0.0204

row,Sequence,shrunken log2 fold change
1,RRIRIRPPRLPRPRPRPIIVPRP,-0.666
2,RRIRIRPPRLPRPRPRPDFTPRP,-0.355
3,RRIRWRPPRLPRPRPRPMIFPRP,-0.302
4,RRIRFRPPRLPRPRPRPGELPRP,0.245
5,RRIRARPPRLPRPRPRPIWKPRP,-0.0642
6,RRIRPRPPRLPRPRPRPCLWPRP,0.0902
7,RRIRTRPPRLPRPRPRPIFSPRP,-0.393
8,RRIRKRPPRLPRPRPRPQFFPRP,-0.493
9,RRIRHRPPRLPRPRPRPSADPRP,-0.428
10,RRIRSRPPRLPRPRPRPVWLPRP,-0.388
11,RRIRKRPPRLPRPRPRPFTCPRP,0.182
12,RRIRIRPPRLPRPRPRPRRYPRP,0.111
13,RRIRNRPPRLPRPRPRPITIPRP,-0.366
14,RRIRFRPPRLPRPRPRPNTWPRP,-0.277
15,RRIRWRPPRLPRPRPRPVIKPRP,-0.226
16,RRIRIRPPRLPRPRPRPQNAPRP,-0.297
17,RRIRQRPPRLPRPRPRPHIYPRP,-0.0139
18,RRIRGRPPRLPRPRPRPFHNPRP,-0.388
19,RRIRLRPPRLPRPRPRPNYMPRP,-0.251
20,RRIRPRPPRLPRPRPRPGHNPRP,-0.133
